# According to patent US20150337049A1 (published 2015):
# Changes are numbered by the printed parent chain.
# B1: bsIgG1 huCD3-H3L1xHER2-LFLEDA (bispecific antibody)
# heavy 1: EVKLVESGGGLVKPGRSLRLSCAASGFTFNTYAMNWVRQAPGKGLEWVARIRSKYNNYATYYADSVKDRFTISRDDSKSILYLQMNSLKTEDTAMYYCVRHGNFGNSYVSWFAYWGQGTLVTVSSASTKGPSVFPLAPSSKSTSGGTAALGCLVKDYFPEPVTVSWNSGALTSGVHTFPAVLQSSGLYSLSSVVTVPSSSLGTQTYICNVNHKPSNTKVDKRVEPKSCDKTHTCPPCPAPEFEGGPSVFLFPPKPKDTLMISRTPEVTCVVVAVSHEDPEVKFNWYVDGVEVHNAKTKPREEQYNSTYRVVSVLTVLHQDWLNGKEYKCKVSNKALPAPIEKTISKAKGQPREPQVYTLPPSREEMTKNQVSLTCLVKGFYPSDIAVEWESNGQPENNYKTTPPVLDSDGSFLLYSKLTVDKSRWQQGNVFSCSVMHEALHNHYTQKSLSLSPGK
# VL 1: not shown
# heavy 2: QVQLVQSGAEVKKPGASVKVSCKASGYTFTNYGISWVRQAPGQGLEWMGWLSAYSGNTIYAQKLQGRVTMTTDTSTTTAYMELRSLRSDDTAVYYCARDRIVVRPDYFDYWGQGTLVTVSSASTKGPSVFPLAPSSKSTSGGTAALGCLVKDYFPEPVTVSWNSGALTSGVHTFPAVLQSSGLYSLSSVVTVPSSSLGTQTYICNVNHKPSNTKVDKRVEPKSCDKTHTCPPCPAPEFEGGPSVFLFPPKPKDTLMISRTPEVTCVVVAVSHEDPEVKFNWYVDGVEVHNAKTKPREEQYNSTYRVVSVLTVLHQDWLNGKEYKCKVSNKALPAPIEKTISKAKGQPREPQVYTLPPSREEMTKNQVSLTCLVKGFYPSDIAVEWESNGQPENNYKTTPPVLDSDGSFFLYSRLTVDKSRWQQGNVFSCSVMHEALHNHYTQKSLSLSPGK
# VL 2: EIVLTQSPATLSLSPGERATLSCRASQSVSSYLAWYQQKPGQAPRLLIYDASNRATGIPARFSGSGSGTDFTLTISSLEPEDFAVYYCQQRSNWPRTFGQGTKVEIK
# B2: IgG1-huCD3-H3L1-LFLEDA (antibody, V domains shown)
# VH: EVKLVESGGGLVKPGRSLRLSCAASGFTFNTYAMNWVRQAPGKGLEWVARIRSKYNNYATYYADSVKDRFTISRDDSKSILYLQMNSLKTEDTAMYYCVRHGNFGNSYVSWFAYWGQGTLVTVSS
# VL: not shown
# B3: IgG1-huCD3-H4L1 (antibody, V domains shown)
# VH: B2 VH with L120M
# VL: not shown
# B4: IgG1-huCD3-H3L3 (antibody, V domains shown)
# VH: B2 VH
# VL: QAVVTQEPSFSVSPGGTVTLTCRSSTGAVTTSNYANWVQQTPGQAFRGLIGGTNKRAPGVPARFSGSILGNKAALTITGAQADDESDYYCALWYSNLWVFGGGTKLTVL
# B5: IgG1-huCD3-H1L2 (antibody, V domains shown)
# VH: B2 VH with K13Q, R16G, I80S, S87N
# VL: B4 VL with D87I, Y89F
# B6: IgG1-huCD3-H1L1 (antibody, V domains shown)
# VH: B2 VH with K13Q, R16G, I80S, S87N
# VL: not shown
# B7: IgG1-huCD3-H1L3 (antibody, V domains shown)
# VH: B2 VH with K13Q, R16G, I80S, S87N
# VL: B4 VL
# B8: IgG1-huCD3-H3L1 with LFLEDA mutations (antibody, V domains shown)
# VH: B2 VH
# VL: not shown
# B9: bsIgG1 huCD3-H3L1×HER2-LFLEDA (bispecific antibody)
# heavy 1: B1 heavy 1
# VL 1: not shown
# heavy 2: B1 heavy 2
# VL 2: B1 VL 2
# B10: BsIgG1 CD3 x HER2 (bispecific antibody)
# chain 1: B2 VH with V5L, K13Q, G15K, R16G, R19K, K78Q, S87N, S125A
# chain 2: QAVVTQESALTTSPGETVTLTCRSSTGAVTTSNYANWVQEKPDHLFTGLIGGTNKRAPGVPARFSGSLIGDKAALTITGAQTEDEAIYFCALWYSNLWVFGGGTKLTVL
# chain 3: QVQLVQSGAEVKKPGASVKVSCKASGYTFTNYGISWVRQAPGQGLEWMGWLSAYSGNTIYAQKLQGRVTMTTDTSTTTAYMELRSLRSDDTAVYYCARDRIVVRPDYFDYWGQGTLVTVSS
# chain 4: B1 VL 2
# B11: IgG1-huCD3-H1L2, wild type Fc region (antibody, V domains shown)
# VH: B2 VH with K13Q, R16G, I80S, S87N
# VL: B4 VL with D87I, Y89F
# B12: IgG1-huCD3-H1L3, wild type Fc region (antibody, V domains shown)
# VH: B2 VH with K13Q, R16G, I80S, S87N
# VL: B4 VL
# B13: IgG1-huCD3-H4L1, wild type Fc region (antibody, V domains shown)
# VH: B2 VH with L120M
# VL: not shown
# B14: IgG1-huCD3-H3L3, wild type Fc region (antibody, V domains shown)
# VH: B2 VH
# VL: B4 VL
# Target: T1, HSC-F (cynomolgous CD3) (cynomolgus monkey, UniProt Q95LI8 22-171; Q95LI7 23-181)
# T1 sequence (Q95LI7 whole entry, looked up, chain 1 of 2): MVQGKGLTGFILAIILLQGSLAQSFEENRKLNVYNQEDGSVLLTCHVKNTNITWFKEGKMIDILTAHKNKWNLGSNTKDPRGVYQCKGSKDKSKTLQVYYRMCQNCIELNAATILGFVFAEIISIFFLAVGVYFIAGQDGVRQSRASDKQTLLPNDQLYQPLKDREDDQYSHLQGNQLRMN
# T1 sequence (Q95LI8 whole entry, looked up, chain 2 of 2): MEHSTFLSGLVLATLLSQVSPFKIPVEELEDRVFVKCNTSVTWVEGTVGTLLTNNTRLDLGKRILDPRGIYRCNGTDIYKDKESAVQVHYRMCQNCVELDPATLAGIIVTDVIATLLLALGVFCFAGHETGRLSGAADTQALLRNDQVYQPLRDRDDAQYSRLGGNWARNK
# Experiment: FACS binding, HSC-F
row,Binder,EC50 [µg/mL]
1,B1,3.54
2,B2,0.3

# Target: T1, HSC-F (cynomolgous CD3)
# Experiment: FACS binding, HSC-F
# Remark: another data set of the same source
row,Binder,EC50 [µg/mL]
1,B3,0.26
2,B4,0.11
3,B5,0.31
4,B6,0.37
5,B2,0.19
6,B7,0.28

# Target: T2, human CD3 on the human T-cell line Jurkat (human, UniProt P09693 23-182; P20963 22-164)
# T2 sequence (chain, as listed by the source, chain 1 of 4): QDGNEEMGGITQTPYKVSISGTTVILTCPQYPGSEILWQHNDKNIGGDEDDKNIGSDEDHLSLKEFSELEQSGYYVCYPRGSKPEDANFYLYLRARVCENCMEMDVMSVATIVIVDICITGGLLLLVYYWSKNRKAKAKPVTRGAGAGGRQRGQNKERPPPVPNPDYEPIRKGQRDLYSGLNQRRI
# T2 sequence (chain, as listed by the source, chain 2 of 4): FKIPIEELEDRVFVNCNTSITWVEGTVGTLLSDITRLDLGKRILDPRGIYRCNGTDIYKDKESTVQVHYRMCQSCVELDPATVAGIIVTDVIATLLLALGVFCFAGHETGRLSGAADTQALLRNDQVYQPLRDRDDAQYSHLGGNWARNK
# T2 sequence (P09693 23-182, chain 3 of 4): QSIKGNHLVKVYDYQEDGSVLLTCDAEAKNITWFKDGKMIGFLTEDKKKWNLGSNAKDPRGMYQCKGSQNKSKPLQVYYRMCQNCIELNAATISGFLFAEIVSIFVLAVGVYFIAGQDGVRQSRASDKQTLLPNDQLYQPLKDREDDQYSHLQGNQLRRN
# T2 sequence (P20963 22-164, chain 4 of 4): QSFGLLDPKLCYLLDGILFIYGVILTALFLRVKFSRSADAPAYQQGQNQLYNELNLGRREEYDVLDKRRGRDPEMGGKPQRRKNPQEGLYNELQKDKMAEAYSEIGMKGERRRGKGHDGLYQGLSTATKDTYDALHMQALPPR
# Experiment: FACS binding, Jurkat
row,Binder,EC50 [µg/mL]
1,B8,0.04
2,B9,0.28

# Target: Jurkat (CD3) (human, UniProt P09693 23-182; P20963 22-164)
# Sequence (chain, as listed by the source, chain 1 of 4): as the sequence (chain, as listed by the source, chain 1 of 4) above
# Sequence (chain, as listed by the source, chain 2 of 4): as the sequence (chain, as listed by the source, chain 2 of 4) above
# Sequence (P09693 23-182, chain 3 of 4): as the sequence (P09693 23-182, chain 3 of 4) above
# Sequence (P20963 22-164, chain 4 of 4): as the sequence (P20963 22-164, chain 4 of 4) above
# Experiment: FACS binding, Jurkat
row,Binder,EC50 [µg/mL]
1,B10,0.68

# Target: T2, human CD3 on the human T-cell line …
# Experiment: FACS binding, Jurkat
# Remark: another data set of the same source
row,Binder,EC50 [µg/mL]
1,B11,0.08
2,B8,0.04
3,B12,0.06
4,B13,0.05
5,B14,0.02
